Source: patent publication US6790824B1, “Cytokines having neurotrophic activity” (Biopharm Gesellschaft zur biotechnologischen Entwicklung …, priority 1997, dated 2004)
Entries after “also recorded” stand apart in the source; their conditions may differ.

B1: BMP-6: rh BMP-6, bone morphogenetic protein (protein, UniProt P22004 375-513, looked up)
Bone morphogenetic protein 6: SASSRRRQQSRNRSTQSQDVARVSSASDYNSSELKTACRKHELYVSFQDLGWQDWIIAPKGYAANYCDGECSFPLNAHMNATNHAIVQTLVHLMNPEYVPKPCCAPTKLNAISVLYFDDNSNVILKKYRNMVVRACGCH
B2: oncostatin M (protein, UniProt P13725 26-221, looked up)
Oncostatin-M: AAIGSCSKEYRVLLGQLQKQTDLMQDTSRLLDPYIRIQGLDVPKLREHCRERPGAFPSEETLRGLGRRGFLQTLNATLGCVLHRLADLEQRLPKAQDLERSGLNIEDLEKLQMARPNILGLRNNIYCMAQLLDNSDTAEPTKAGRGASQPPTPTPASDAFQRKLEGCRFLHGYHRFMHSVGRVFSKWGESPNRSRR
B3: GDF-5: bone morphogenetic protein like molecule, member of the TGF-β superfamily (protein, UniProt P43026 382-501, looked up)
Growth/differentiation factor …: APLATRQGKRPSKNLKARCSRKALHVNFKDMGWDDWIIAPLEYEAFHCEGLCEFPLRSHLEPTNHAVIQTLMNSMDPESTPPTCCVPTRLSPISILFIDSANNVVYKQYEDMVVESCGCR
B4: brain-derived neurotrophic factor (protein, UniProt P23560 19-247, looked up)
Neurotrophic factor BDNF …: APMKEANIRGQGGLAYPGVRTHGTLESVNGPKAGSRGLTSLADTFEHVIEELLDEDQKVRPNEENNKDADLYTSRVMLSSQVPLEPPLLFLLEEYKNYLDAANMSMRVRRHSDPARRGELSVCDSISEWVTAADKKTAVDMSGGTVTVLEKVPVSKGQLKQYFYETKCNPMGYTKEGCRGIDKRHWNSQCRTTQSYVRALTMDSKKRIGWRFIRIDTSCVCTLTIKRGR
B5: BMP-7: rh BMP-7, bone morphogenetic protein (protein, UniProt P18075 293-431, looked up)
Bone morphogenetic protein 7: STGSKQRSQNRSKTPKNQEALRMANVAENSSSDQRQACKKHELYVSFRDLGWQDWIIAPEGYAAYYCEGECAFPLNSYMNATNHAIVQTLVHFINPETVPKPCCAPTQLNAISVLYFDDSSNVILKKYRNMVVRACGCH
B6: BMP-11: rh BMP-11, bone morphogenetic protein (protein, UniProt O95390 299-407, looked up)
Growth/differentiation factor …: NLGLDCDEHSSESRCCRYPLTVDFEAFGWDWIIAPKRYKANYCSGQCEYMFMQKYPHTHLVQQANPRGSAGPCCTPTKMSPINMLYFNDKQQIIYGKIPGMVVDRCGCS
B7: BMP-12: rh BMP-12, bone morphogenetic protein (protein, UniProt Q7Z4P5 322-450, looked up)
Growth/differentiation factor …: TALAGTRTAQGSGGGAGRGHGRRGRSRCSRKPLHVDFKELGWDDWIIAPLDYEAYHCEGLCDFPLRSHLEPTNHAIIQTLLNSMAPDAAPASCCVPARLSPISILYIDAANNVVYKQYEDMVVEACGCR
B8: neurotrophin-4 (protein, UniProt P34130 81-210, looked up)
Neurotrophin-4: GVSETAPASRRGELAVCDAVSGWVTDRRTAVDLRGREVEVLGEVPAAGGSPLRQYFFETRCKADNAEEGGPGAGGGGCRGVDRRHWVSECKAKQSYVRALTADAQGRVGWRWIRIDTACVCTLLSRTGRA
B9: BMP-4: rh BMP-4, bone morphogenetic protein (protein, UniProt P12644 293-408, looked up)
Bone morphogenetic protein 4: SPKHHSQRARKKNKNCRRHSLYVDFSDVGWNDWIVAPPGYQAFYCHGDCPFPLADHLNSTNHAIVQTLVNSVNSSIPKACCVPTELSAISMLYLDEYDKVVLKNYQEMVVEGCGCR
B10: CNTF: recombinant rat (rr) CNTF, established neurotrophic factor for CG neurons (protein, UniProt P20294 1-200, looked up)
Ciliary neurotrophic factor: MAFAEQTPLTLHRRDLCSRSIWLARKIRSDLTALMESYVKHQGLNKNINLDSVDGVPVASTDRWSEMTEAERLQENLQAYRTFQGMLTKLLEDQRVHFTPTEGDFHQAIHTLMLQVSAFAYQLEELMVLLEQKIPENEADGMPATVGDGGLFEKKLWGLKVLQELSQWTVRSIHDLRVISSHQMGISALESHYGAKDKQM

Legend:
[1] = system: embryonic chicken dorsal root ganglia (DRG) neurons; experiment: Survival of dissociated embryonic chick dorsal root ganglia (DRG) neurons, 48 h, counting of surviving neurons; assay type: cell-based; details: for survival promoting effect of the single factor: factor added alone, dose-response; for survival effect as share of the (maximal) NGF effect: single factor; for survival of DRG neurons in combination with NGF: NGF 10 ng/ml (saturating); for survival of DRG neurons in combination with NT-3: NT-3 10 ng/ml (saturating); for effect on DRG neuron survival when added together with GDF-5: factor at saturating concentration plus GDF-5 20 ng/ml
Procedure: Dissociated cultures of embryonic chicken dorsal root ganglia (DRG) were generated as described in details by Krieglstein and Unsicker (Neurochem. Res., 21(7) (1996) 843-850). Briefly, DRGs from white Leghorn chick embryos (day 8) were dissected in Ca^2+-Mg^2+ free Hanks' balanced salt solution. After incubation in 0.08% trypsin for 15 min ganglia were dissociated by trituration. Cells were seeded in polyomithin-laminin coated 96-well microtiter plates (A/2 Costar) at a density of 1,200 cells/well. Growth factors were applied at the time of plating in a final volume of […] Dulbecco's Modified Eagle's Medium supplemented with 0.25% bovine serum albumin, N1 additives and 100 U/ml penicillin. As a positive control, nerve growth factor (NGF) was used at the saturating concentration of 5 ng/ml. After 48 h of incubation at 37° C. in a humidified atmosphere containing 5% CO2, cultures were fixed with 2.5% glutaraldehyde. Neuronal cells were identified by their phase-bright and neurite-bearing morphologies and counted within 30% of the total surface area using phase contrast microscopy. In the first set of experiments we tested the survival promoting effect of several growth factors of the bone morphogenetic protein family.
(§1) Embryonic chick ciliary (CG), dorsal root (DRG), and sympathetic (SG) ganglia at embryonic day(s) (E) 8, 10, and 12, were dissected, freed from nerve roots and connective tissue and collected in CME. Ganglia were incubated in trypsin (ICN), washed and dissociated by trituration using fire-polished Pasteur pipettes. Cultures were set up in 96-well microtiter plates (Costar, A/2), precoated with poly-L-ornithine and laminin at a density of 1,200-1,500 cells/well in DMEM supplemented with N1 additives, 0.25% BSA, and 0.1% PSN (DME/N1) and incubated at 37° C. in a 5% CO2 incubator.
(§2) At appropriate times (CG: 24 h, DRG: 48 h, SG: 72 h) cultures were fixed by addition of 2.5% glutardialdehyde in phosphate buffered saline (PBS). Numbers of surviving neurons were determined by direct counting of 30% of the surface area using phase contrast microscopy.
Dissociated cultures of embryonic chicken dorsal root ganglia (DRGs) were generated as described in details by Krieglstein and Unsicker (Dev. Brain. Rees. 93 (1996) 10-17). Briefly, DRGs were dissected in Ca^2+-Mg^2+ free Hank's balanced salt solution (CMF). After incubation in 0.08% trypsin (BioWhittaker) for 15 min, ganglia were dissociated by gentle trituration using fire-polished Pasteur pipettes. Cells in suspension (neuron/non-neuron ratio 1:2) were seeded in polyomithin-laminin coated 96-well microtiter plates (A/2 Costar) at a density of 1,200 cells/well. Growth factors were applied at the time of plating in a final volume of 50 μl Dulbecco's Modified Eagle's Medium supplemented with 0.25% bovine serum albumin, N1 additives (Bottenstein et al., Exp. Cell Res. 125 (1980) 183-190) and 100 U/ml penicillin. As a positive control, nerve growth factor (NGF) was used at the saturating concentration of 10 ng/ml. After 48 h of incubation at 37° C. in a humidified atmosphere containing 5% CO2, cultures were fixed with 2.5% glutaraldehyde in phosphate buffered saline (PBS). Neuronal cells were identified by their phase-bright and neurite-bearing morphologies and counted within 30% of the total surface area using phase contrast microscopy. All experiments were performed in at least triplicate in two independent experiments. Data are presented as mean±SEM. Statistical comparisons were made with student's double t-test, ANOVA and MicrocalOrigin software. Differences were considered statistically significant at *P<0.05, **P<0.01, **P<0.001.

[2] = system: chick ciliary ganglionic (CG) neurons; experiment: Survival of embryonic chick ciliary ganglionic (CG) neurons, 24 h, counting of surviving neurons; assay type: cell-based; details: for CG neuron survival with further addition of TGF-β: TGF-β 2.5 ng/ml, CNTF non-saturating, OSM, LIF, IL-6 at 10 ng/ml
Procedure: as §1, §2
Phosphatidylinositol-specific phospholipase C (PIPLC) is an enzyme that specifically cleaves glycosyl-phosphatidylinositol (GPI) linkages. Embryonic chick ciliary ganglionic neurons (E8) were isolated and seeded as described before. Neurons were incubated for 1 h at 37° C. with 1) 100 mU PIPLC or II) 100 mU PIPLC+2 ng/ml TGFβ or III) without enzyme and then growth factors were added. The number of surviving neurons was determined 24 h later.

Molecule | survival promoting effect of the single factor ([1]; E8 chick DRG, 48 h) | survival effect as share of the (maximal) NGF effect ([1]; E8 chick DRG, 48 h) | survival of DRG neurons in combination with NGF ([1]; E8, 48 h) | survival of DRG neurons in combination with NT-3 ([1]; E8, 48 h) | other results
B1 | significant effect | – | – | – | –
B2 | – | – | – | – | CG neuron survival with further addition of TGF-β [2]: did not increase the effects of these cytokines beyond background levels; support of CG neuron survival by the single cytokine ([2]; at 10 ng/ml, without TGF-β): did not support CG neurons
B3 | promoted the survival of a very small neuron population | about 20% | significantly increased survival of DRG neurons beyond levels maintained by the single factors | significantly augmented the promoting effect of NT-3 | neuronal numbers, GDF-5 and NT-3 both at saturating concentrations ([1]; E8 chick DRG, 48 h): failed to increase neuronal numbers significantly above the levels of each single factor; increase in neuronal cell numbers ([1]; E8 chick DRG, 48 h, saturating concentration of 20 ng/ml, vs untreated): approximately two-fold; neuronal cell numbers, GDF-5 added to NGF ([1]; GDF-5 20 ng/ml plus NGF 5 ng/ml, E8, 48 h): significantly increased neuronal cell numbers above values obtained for each single factor; DRG neuron survival with addition of NT-3 ([1]; various concentrations of GDF-5 plus 2.5 ng/ml NT-3, E8, 48 h): significantly increased DRG neuron survival above the NT-3 level
B4 | – | – | – | – | effect on DRG neuron survival when added together with GDF-5 ([1]; E8, 48 h): synergistic or additive effects
B5 | – | approximately 35% | – | significantly augmented the promoting effect of NT-3 | –
B6 | significant effect | – | – | – | –
B7 | significant effect; also recorded: promoted the survival of a very small neuron population | – | significantly increased survival of DRG neurons beyond levels maintained by the single factors | significantly augmented the promoting effect of NT-3 | –
B8 | – | – | – | – | effect on DRG neuron survival when added together with GDF-5 ([1]; E8, 48 h): synergistic or additive effects
B9 | – | approximately 35% | significantly increased survival of DRG neurons beyond levels maintained by the single factors | – | –
B10 | – | – | – | – | CG neuron survival with further addition of TGF-β [2]: clearly augmented the efficacy of a non-saturating concentration of CNTF
